This note sets out measurements from publication PMC6820745, “Structural and thermodynamic basis for the recognition of the substrate-binding cleft on hen egg lysozyme by a single-domain antibody” (Scientific Reports, 2019).

Details in all cases: both partners purified
Test [1] has as its target T1, hen egg lysozyme (hen, UniProt P00698 19-147).
T1 construct: hen egg lysozyme (HEL), bought, used without further purification; also called HEL; source: bought: Wako Pure Chemical (Cat. No. 126-02671)
In words: SPR; HEL immobilised on CM5 chip (200 RU), VHH flowed over, multi-cycle, 26 °C, PBS with 0.005% Tween 20, global fit to a 1:1 binding model.

The target of test [2] is T1, hen egg lysozyme. The test is described as follows: SPR; HEL immobilised on CM5 chip (200 RU), VHH flowed over, multi-cycle, 30 °C, PBS with 0.005% Tween 20, global fit to a 1:1 binding model. (In general: In SPR one partner is held on a chip, and binding of the other changes the refractive index at the surface.)
Test [3] deals with T1, hen egg lysozyme. The test is described as follows: SPR; HEL immobilised on CM5 chip (200 RU), VHH flowed over, multi-cycle, 14 °C, PBS with 0.005% Tween 20, global fit to a 1:1 binding model.
In test [4] the target is T1, hen egg lysozyme. In words: ITC; iTC200, 25 °C, PBS; VHH (10 µM) in the cell titrated with HEL (100 µM); 1:1 binding model; two independent measurements. (In general: In ITC the heat of successive injections is recorded.)
The target in test [5] is T1, hen egg lysozyme. The test is described as follows: SPR; HEL immobilised on CM5 chip (200 RU), VHH flowed over, multi-cycle, 10 °C, PBS with 0.005% Tween 20, global fit to a 1:1 binding model.
Test [6] addresses T1, hen egg lysozyme. The test is described as follows: SPR; HEL immobilised on CM5 chip (200 RU), VHH flowed over, multi-cycle, 22 °C, PBS with 0.005% Tween 20, global fit to a 1:1 binding model.
Test [7] addresses T1, hen egg lysozyme. The test is described as follows: SPR; HEL immobilised on CM5 chip (200 RU), VHH flowed over, multi-cycle, 18 °C, PBS with 0.005% Tween 20, global fit to a 1:1 binding model.
In test [8] the target is T2, hen egg lysozyme (Gallus gallus (hen), UniProt P00698).
T2 construct: hen egg lysozyme (lysozyme C), bought from Wako Pure Chemical; also called HEL; source: bought: Wako Pure Chemical (Cat. No. 126-02671), used without further purification
In words: SPR; Biacore T200; HEL immobilised on CM5 chip (200 RU); VHH flowed over; 25 °C; PBS with 0.005% Tween 20; global fit to a 1:1 binding model. In a few lines: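 Binding of the His6-tagged single-domain antibody, expressed in E. coli BL21(DE3) and purified by Ni-NTA and size-exclusion chromatography, was measured by surface plasmon resonance on a Biacore T200 against hen egg lysozyme immobilised on a CM5 chip (200 RU). Runs were at 25 °C in PBS with 0.005% Tween 20, with 300 s contact, 600 s dissociation and regeneration in 1.0 M Arg-HCl pH 4.4. Antibody concentrations were adjusted per mutant. Kd, kon and koff came from global fitting to a 1:1 binding model in BiaEvaluation.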

The target of test [9] is T2, hen egg lysozyme. In words: SPR; as a1, but KD from the responses in equilibrium (Scatchard plot, 1:1 model); HEL immobilised; 25 °C; PBS with 0.005% Tween 20.
Test [10] concerns the target T1, hen egg lysozyme. The test is described as follows: SPR; HEL immobilised on CM5 chip (200 RU), VHH flowed over, multi-cycle, 10 °C, PBS with 0.005% Tween 20, global fit to a 1:1 binding model. This is another data set of the same source.
For test [11], the target named is T1, hen egg lysozyme. In words: SPR; HEL immobilised on CM5 chip (200 RU), VHH flowed over, multi-cycle, 26 °C, PBS with 0.005% Tween 20, global fit to a 1:1 binding model. This is another data set of the same source.
For test [12], the target named is T1, hen egg lysozyme. The test is described as follows: SPR; HEL immobilised on CM5 chip (200 RU), VHH flowed over, multi-cycle, 18 °C, PBS with 0.005% Tween 20, global fit to a 1:1 binding model. The source holds these as a separate data set.
The target of test [13] is T1, hen egg lysozyme. In words: SPR; HEL immobilised on CM5 chip (200 RU), VHH flowed over, 30 °C, PBS with 0.005% Tween 20, steady-state responses (Scatchard plot), 1:1 binding model.
Test [14] addresses T1, hen egg lysozyme. In words: SPR; HEL immobilised on CM5 chip (200 RU), VHH flowed over, 14 °C, PBS with 0.005% Tween 20, steady-state responses (Scatchard plot), 1:1 binding model.
Test [15] deals with T1, hen egg lysozyme. The test is described as follows: SPR; HEL immobilised on CM5 chip (200 RU), VHH flowed over, multi-cycle, 14 °C, PBS with 0.005% Tween 20, global fit to a 1:1 binding model. The source holds these as a separate data set.
Test [16] concerns the target T1, hen egg lysozyme. The test is described as follows: SPR; HEL immobilised on CM5 chip (200 RU), VHH flowed over, 18 °C, PBS with 0.005% Tween 20, steady-state responses (Scatchard plot), 1:1 binding model.
Test [17] addresses T1, hen egg lysozyme. In words: SPR; HEL immobilised on CM5 chip (200 RU), VHH flowed over, 26 °C, PBS with 0.005% Tween 20, steady-state responses (Scatchard plot), 1:1 binding model.
Test [18] deals with T1, hen egg lysozyme. The test is described as follows: SPR; HEL immobilised on CM5 chip (200 RU), VHH flowed over, multi-cycle, 22 °C, PBS with 0.005% Tween 20, global fit to a 1:1 binding model. The source holds these as a separate data set.
For test [19], the target named is T1, hen egg lysozyme. The test is described as follows: SPR; HEL immobilised on CM5 chip (200 RU), VHH flowed over, 10 °C, PBS with 0.005% Tween 20, steady-state responses (Scatchard plot), 1:1 binding model.
For test [20], the target named is T1, hen egg lysozyme. The test is described as follows: SPR; HEL immobilised on CM5 chip (200 RU), VHH flowed over, 22 °C, PBS with 0.005% Tween 20, steady-state responses (Scatchard plot), 1:1 binding model.

T1 sequence (P00698 19-147): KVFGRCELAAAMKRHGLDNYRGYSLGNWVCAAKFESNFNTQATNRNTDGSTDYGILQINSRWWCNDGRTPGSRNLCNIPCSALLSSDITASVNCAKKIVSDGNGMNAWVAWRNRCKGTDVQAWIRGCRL
T2 sequence (P00698 19-147): as above

B1: D3-L11 (wild type), VHH specific for hen egg lysozyme (VHH)
VHH: DVQLVESGGGSVQAGGSLRLSCAASGSTDSIEYMTWFRQAPGKAREGVAALYTHTGNTYYTDSVKGRFTISQDKAKNMAYLRMDSVKSEDTAIYTCGATRKYVPVRFALDQSSYDYWGQGTQVTVSS
notes: also called WT; WT antibody; source: E. coli BL21(DE3), purified (Ni-NTA, SEC)
As usually defined, the Kd is the concentration at which binding is half-saturated. One may read the koff as a measure of how fast the partners let go of each other. A low value points to slow dissociation. What is called kon is the second-order rate constant of association. A higher kon goes with fast association. Broadly, the stoichiometry N is the number of molecules, sites or subunits per partner or assembly. Consider B1, for which the Kd is 0.127 nM with hen egg lysozyme [1]; 0.177 nM with hen egg lysozyme [2]; 0.0395 nM with hen egg lysozyme [3]; 3.8 nM in the test with hen egg lysozyme [4]; 0.0267 nM in the test with hen egg lysozyme [5]; 0.0897 nM in the test with hen egg lysozyme [6]. In the test with hen egg lysozyme [7], the affinity, expressed as Kd, was 0.0549 nM. Further, the koff with hen egg lysozyme [1] was 0.000847 s⁻¹; with hen egg lysozyme [2] it was 0.0015 s⁻¹; with hen egg lysozyme [3], 0.000139 s⁻¹; with hen egg lysozyme [5] it was 7.52e-05 s⁻¹; with hen egg lysozyme [6] it was 0.000492 s⁻¹; with hen egg lysozyme [7], 0.000274 s⁻¹. Also, the kon with hen egg lysozyme [1] amounted to 6.81e+06 M⁻¹ s⁻¹; with hen egg lysozyme [2], 8.48e+06 M⁻¹ s⁻¹; in the test with hen egg lysozyme [3], 3.52e+06 M⁻¹ s⁻¹; with hen egg lysozyme [5], 2.81e+06 M⁻¹ s⁻¹; in the test with hen egg lysozyme [6] it was 5.48e+06 M⁻¹ s⁻¹; with hen egg lysozyme [7] it was 4.99e+06 M⁻¹ s⁻¹. The “stoichiometry N” value with hen egg lysozyme [4] is 0.88.

B2: D3-L11 K101A (VHH)
VHH: DVQLVESGGGSVQAGGSLRLSCAASGSTDSIEYMTWFRQAPGKAREGVAALYTHTGNTYYTDSVKGRFTISQDKAKNMAYLRMDSVKSEDTAIYTCGATRAYVPVRFALDQSSYDYWGQGTQVTVSS
notes: as the VHH chain of m2 with the stated change; source: E. coli BL21(DE3), purified (Ni-NTA, SEC)
In the test with hen egg lysozyme [8], B2 registered a Kd of 0.0911 nM, a koff of 0.000687 s⁻¹ and a kon of 7.54e+06 M⁻¹ s⁻¹.

B3: D3-L11 F107A (VHH)
VHH: DVQLVESGGGSVQAGGSLRLSCAASGSTDSIEYMTWFRQAPGKAREGVAALYTHTGNTYYTDSVKGRFTISQDKAKNMAYLRMDSVKSEDTAIYTCGATRKYVPVRAALDQSSYDYWGQGTQVTVSS
notes: as for B2
In the test with hen egg lysozyme [8], B3 gave a Kd of 1.63 nM, a koff of 0.0147 s⁻¹ and a kon of 8.99e+06 M⁻¹ s⁻¹.

B4: D3-L11 P104A (VHH)
VHH: DVQLVESGGGSVQAGGSLRLSCAASGSTDSIEYMTWFRQAPGKAREGVAALYTHTGNTYYTDSVKGRFTISQDKAKNMAYLRMDSVKSEDTAIYTCGATRKYVAVRFALDQSSYDYWGQGTQVTVSS
notes: as for B2
Regarding B4, in the test with hen egg lysozyme [8], binding was put at a Kd of 13 nM, the koff came to 0.226 s⁻¹ and the kon was found to be 1.74e+07 M⁻¹ s⁻¹. In the test with hen egg lysozyme [9], the affinity, expressed as Kd, was 44.8 ± 19 nM.

B5: D3-L11 R106A (VHH)
VHH: DVQLVESGGGSVQAGGSLRLSCAASGSTDSIEYMTWFRQAPGKAREGVAALYTHTGNTYYTDSVKGRFTISQDKAKNMAYLRMDSVKSEDTAIYTCGATRKYVPVAFALDQSSYDYWGQGTQVTVSS
notes: as for B2
Regarding B5, in the test with hen egg lysozyme [8], the affinity, expressed as Kd, was 1.65 nM; the koff was determined as 0.00183 s⁻¹; the kon came to 1.11e+06 M⁻¹ s⁻¹.

B6: D3-L11 E32A (VHH)
VHH: DVQLVESGGGSVQAGGSLRLSCAASGSTDSIAYMTWFRQAPGKAREGVAALYTHTGNTYYTDSVKGRFTISQDKAKNMAYLRMDSVKSEDTAIYTCGATRKYVPVRFALDQSSYDYWGQGTQVTVSS
notes: as for B2
In the test with hen egg lysozyme [8], B6 came in with a Kd of 1.87 nM, a koff of 0.012 s⁻¹ and a kon of 6.43e+06 M⁻¹ s⁻¹.

B7: D3-L11 S113A (VHH)
VHH: DVQLVESGGGSVQAGGSLRLSCAASGSTDSIEYMTWFRQAPGKAREGVAALYTHTGNTYYTDSVKGRFTISQDKAKNMAYLRMDSVKSEDTAIYTCGATRKYVPVRFALDQSAYDYWGQGTQVTVSS
notes: as for B2
B7: in the test with hen egg lysozyme [8], the equilibrium dissociation constant (Kd) worked out at 1.61 nM, the koff came to 0.00831 s⁻¹ and the kon stood at 5.17e+06 M⁻¹ s⁻¹.

B8: D3-L11 H54A (VHH)
VHH: DVQLVESGGGSVQAGGSLRLSCAASGSTDSIEYMTWFRQAPGKAREGVAALYTATGNTYYTDSVKGRFTISQDKAKNMAYLRMDSVKSEDTAIYTCGATRKYVPVRFALDQSSYDYWGQGTQVTVSS
notes: as for B2
Take B8: in the test with hen egg lysozyme [8], the Kd stood at 2.65 nM, the koff was 0.00921 s⁻¹ and the on-rate constant (kon) is 3.48e+06 M⁻¹ s⁻¹.

B9: D3-L11 T55A (VHH)
VHH: DVQLVESGGGSVQAGGSLRLSCAASGSTDSIEYMTWFRQAPGKAREGVAALYTHAGNTYYTDSVKGRFTISQDKAKNMAYLRMDSVKSEDTAIYTCGATRKYVPVRFALDQSSYDYWGQGTQVTVSS
notes: as for B2
Regarding B9, in the test with hen egg lysozyme [8], the Kd was 2.99 nM, the koff came to 0.0113 s⁻¹ and the kon was determined as 3.77e+06 M⁻¹ s⁻¹.

B10: D3-L11 D115A (VHH)
VHH: DVQLVESGGGSVQAGGSLRLSCAASGSTDSIEYMTWFRQAPGKAREGVAALYTHTGNTYYTDSVKGRFTISQDKAKNMAYLRMDSVKSEDTAIYTCGATRKYVPVRFALDQSSYAYWGQGTQVTVSS
notes: as for B2
In the test with hen egg lysozyme [8], B10 registered a Kd of 0.156 nM, a koff of 0.000956 s⁻¹ and a kon of 6.11e+06 M⁻¹ s⁻¹.

B11: D3-L11 Y52A (VHH)
VHH: DVQLVESGGGSVQAGGSLRLSCAASGSTDSIEYMTWFRQAPGKAREGVAALATHTGNTYYTDSVKGRFTISQDKAKNMAYLRMDSVKSEDTAIYTCGATRKYVPVRFALDQSSYDYWGQGTQVTVSS
notes: the substitution is still to be applied; source: E. coli BL21(DE3), purified (Ni-NTA, SEC)
B11: the Kd with hen egg lysozyme [10] is 21.2 nM; in the test with hen egg lysozyme [11], 52.9 nM; in the test with hen egg lysozyme [12], 33 nM; in the test with hen egg lysozyme [4], 1000 nM; in the test with hen egg lysozyme [13], 142 ± 10 nM; in the test with hen egg lysozyme [14], 71.4 ± 5.3 nM. Further, the Kd with hen egg lysozyme [15] was 26.5 nM; in the test with hen egg lysozyme [16], 83.4 ± 6.5 nM; with hen egg lysozyme [17], 119 ± 9 nM; with hen egg lysozyme [18], 40.8 nM; in the test with hen egg lysozyme [19] it was 60.5 ± 4.3 nM; in the test with hen egg lysozyme [20] it was 99.2 ± 7.4 nM. The koff with hen egg lysozyme [10] was 0.037 s⁻¹; with hen egg lysozyme [11] it was 0.144 s⁻¹; with hen egg lysozyme [12] it was 0.0731 s⁻¹; with hen egg lysozyme [15], 0.0515 s⁻¹; with hen egg lysozyme [18], 0.102 s⁻¹. The kon with hen egg lysozyme [10] was 1.74e+06 M⁻¹ s⁻¹; with hen egg lysozyme [11], 2.72e+06 M⁻¹ s⁻¹; in the test with hen egg lysozyme [12], 2.21e+06 M⁻¹ s⁻¹; in the test with hen egg lysozyme [15], 1.94e+06 M⁻¹ s⁻¹; with hen egg lysozyme [18], 2.5e+06 M⁻¹ s⁻¹. The “stoichiometry N” value in the test with hen egg lysozyme [4] worked out at 0.93.
